Assays:
[1] = test system: NCI-H441 cells; experiment: Wound healing (migration) assay with NCI-H441 cells; format: cell-based
Protocol: HGF stimulates motility. To determine whether the anti-HGF antibodies were able to inhibit migration, NCI-H441 cells were grown to high density and a gap was introduced with a P200 pipette tip. Cells were then stimulate to migrate across the gap with HGF (100 ng/ml) in presence or in absence of 11E1. Wells with 11E1 alone were also evaluated. Each tested condition was evaluated as a sextuplicate and 3 independent experiments were performed. After an overnight incubation, cells were visualized with an Axio Vision Camera (objective ×4).

[2] = target: T1, c-Met-Fc-Tag His (Homo sapiens, UniProt P08581); experiment: BIAcore epitope mapping on captured c-Met-Fc; format: binding
T1 construct: c-Met extracellular domain fusion protein (10-15 g/dose/mouse) (R&D Systems, Catalog #358MT); purchased R&D systems 358-MT-CF
T1 sequence (P08581 25-932 limits assumed): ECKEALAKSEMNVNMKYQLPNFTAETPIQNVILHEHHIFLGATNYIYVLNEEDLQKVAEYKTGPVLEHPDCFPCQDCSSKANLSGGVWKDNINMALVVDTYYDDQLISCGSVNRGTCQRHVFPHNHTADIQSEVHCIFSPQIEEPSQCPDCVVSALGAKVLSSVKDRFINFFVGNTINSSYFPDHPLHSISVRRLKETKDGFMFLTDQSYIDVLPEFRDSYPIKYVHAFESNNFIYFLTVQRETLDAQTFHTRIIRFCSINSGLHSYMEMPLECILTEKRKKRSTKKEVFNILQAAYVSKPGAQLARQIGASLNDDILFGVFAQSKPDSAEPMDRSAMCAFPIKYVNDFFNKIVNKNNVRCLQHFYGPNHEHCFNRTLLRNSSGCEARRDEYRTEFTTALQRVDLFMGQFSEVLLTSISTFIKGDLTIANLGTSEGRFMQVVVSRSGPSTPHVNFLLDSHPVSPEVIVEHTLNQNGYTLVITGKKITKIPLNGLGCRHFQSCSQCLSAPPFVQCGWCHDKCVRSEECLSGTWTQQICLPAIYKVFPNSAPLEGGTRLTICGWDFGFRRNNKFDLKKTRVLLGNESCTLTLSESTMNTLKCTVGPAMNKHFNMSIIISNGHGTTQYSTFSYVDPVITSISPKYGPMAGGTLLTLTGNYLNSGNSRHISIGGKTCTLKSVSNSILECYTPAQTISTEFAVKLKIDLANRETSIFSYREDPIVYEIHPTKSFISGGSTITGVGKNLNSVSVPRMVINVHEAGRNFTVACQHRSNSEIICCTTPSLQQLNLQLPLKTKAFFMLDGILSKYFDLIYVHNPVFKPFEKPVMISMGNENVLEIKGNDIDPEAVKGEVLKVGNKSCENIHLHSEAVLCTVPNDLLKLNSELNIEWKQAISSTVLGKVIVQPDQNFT
Description: A couple of antibodies unable to bind at the same time on the antigen molecule are classified in the same group (identical or neighbouring binding sites). At the opposite when their respective binding sites are sufficiently distant to allow a simultaneous binding of both antibodies these later are classified into two different groups. In such experiments, the antigen is commonly used as the ligand (immobilized on the sensorchip) and the antibodies are used without any labelling as analytes (solution phase).
All the experiments described have been done on a BIAcore X instrument (GE Healthcare Europe GmbH). A CM5 sensorchip (BIAcore) activated by a mouse anti-Tag-6His Mab (R&D System ref. MAB050) has been prepared following the manufacturer instructions by using the amine coupling kit (BIAcore). The running buffer (HBS-EP) and regeneration buffer (Glycine, HCl) are from BIAcore. A recombinant soluble version of the human HGF receptor produced as a chimeric molecule c-Met-Fc-Tag His was from R&D systems (ref. 358-MT-CF). […]
The ability of an antibody “A” to block the binding of an antibody “B” is calculated by the ratio BIA/C=(R2A/B/R1B)×100: where R2A/B is the response corresponding to the binding of the MAb “B” when it was injected after Mab “A” and R1B is the response corresponding to the binding of the MAb “B” when it was injected first. […]

[3] = test system: NCI-H441; experiment: In vivo combination of 224G11 and Docetaxel on NCI-H441 xenograft model; set-up: species or system Athymic nude mice; details: D11 to D35; Docetaxel 7.5 mg/kg i.p.
Protocol: NCI-H441 cells from ATCC were routinely cultured in RPMI 1640 medium, 10% FCS, 1% L-Glutamine. Cells were split two days before engraftment being in exponential phase of growth. Nine million NCI-H441 cells were engrafted to Athymic nude mice. […] Mice were treated i.p. either with a loading dose of 2 mg of 224G11 Mab/mouse and then twice a week with 1 mg of antibody/mouse or with 4 injections of Docetaxel (D5, D12, D19, D26) at 7.5 mg/kg. A third group administered with the combine treatment was also included. Docetaxel was given by i.p. injections. Tumor volume was measured twice a week and calculated by the formula: π/6×length×width×height and animal weights were monitored every day over the period of Docetaxel treatment. Statistical analysis was performed at each measured time using either a t-test or a Mann-Whitney test. […] Results are represented in FIG. 47.

[4] = test system: NCI-H441; experiment: Established xenograft NCI-H441 tumor model, 224G11 alone or with Navelbine (Example 15); format: in vivo, Swiss nude mice; details: 224G11 2 mg loading then 1 mg twice a week i.p.; Navelbine 8 mg/kg i.p. days 5, 12, 19
Protocol: Briefly, NCI-H441 cells from ATCC were routinely cultured in RPMI 1640 medium, 10% FCS and 1% L-Glutamine. Cells were split two days before engraftment so that they were in exponential phase of growth. Ten million NCI-H441 cells were engrafted in PBS to 7 weeks old Swiss nude mice. […] Mice were treated i.p. with a loading dose of 2 mg of 224G11/mouse and then twice a week, for 43 days, with 1 mg of antibody/mouse. The 9G4 MAb was used as an isotype control.
Navelbine® was given by i.p. injections at a dose of 8 mg/kg on days 5, 12, 19 post-cell injection. For combined therapy with both 224G11 and Navelbine®, the two compounds were administered separately. In this experience the 2 compounds were used at their optimal dosage. Tumor volume was measured twice a week and calculated by the formula: p/6×length×width×height.

[5] = test system: U87-MG; experiment: In vivo combination of 224G11 and Temozolomide on U87MG xenograft model; set-up: species or system Athymic nude mice; details: D22 to D32; Temozolomide 5 mg/kg i.p.
Protocol: U87-MG cells from ATCC were routinely cultured in DMEM medium, 10% FCS, 1% L-Glutamine. Cells were split two days before engraftment being in exponential phase of growth. Five million U87-MG cells were engrafted to Athymic nude mice. […] Mice were treated i.p. either with a loading dose of 2 mg of 224G11 Mab/mouse and then twice a week with 1 mg of antibody/mouse or with 3 injections of Temozolomide (D19, D26, D33) at 5 mg/kg. A third group administered with the combine treatment was also included. Temozolomide was given by i.p. injections. Tumor volume was measured twice a week and calculated by the formula: π/6×length×width×height and animal weights were monitored every day over the period of Temozolomide treatment. Statistical analysis was performed at each measured time using either a t-test or a Mann-Whitney test. […] Results are represented in FIG. 48.

[6] = test system: MDA-MB-231; experiment: MDA-MB-231 cells co-implanted with MRC5 cells xenograft; format: in vivo, Athymic nude mice; details: 2 mg loading dose then 1 mg twice a week i.p.
Protocol: […] and MRC5 cells from ATCC were both cultured in DMEM medium, 10% FCS, 1% L-Glutamine. Cells were split two days before engraftment being in exponential phase of growth. Five million MDA-MB-231 cells and 500 000 MRC5 cells were co-injected s.c. to Athymic nude mice. […] Mice were treated i.p. either with a loading dose of 2 mg of 224G11 Mab/mouse and then twice a week with 1 mg of antibody/mouse. Tumor volume was measured twice a week and calculated by the formula: π/6×length×width×height.

BIA/C ratio, 2nd Ab (B) 5D5 ([2]; listed as antibody injected first (A), 5D5 second, 10 μg/ml, below 20% = blocks)	epitope mapping, binding sites ([2]; sequential injections of 5D5 and 11E1 on captured c-Met-Fc)	Molecule	effect on cell migration in presence of HGF ([1]; NCI-H441, HGF 100 ng/ml)	agonist effect on cell migration, added alone ([1]; NCI-H441, no HGF)	anti-tumor activity compared to the control group [3]	anti-tumor activity [4]	anti-tumor activity compared to the control group [5]	median tumors growth compared to the control group [6]
84.2%	bind clearly to two distant sites	11E1: murine anti-c-Met monoclonal antibody, IgG1 kappa; heavy chain SEQ ID No. 62, light chain SEQ ID No. 63 (antibody, V domains shown, mus musculus) VH: QVQLQQSGAELAKPGASVKMSCKASGYTFTSYWMNWVKQRPGQGLEWIGYINPTTGSTDYNQKLKDKATLTADKSSNTAYMQLSSLTSEDSAVYYCAIGGYGSWFAYWGQGTLVTVSA VL: QIVLTQSPAIMSASPGEKVTLTCSASSSVSSTYLYWYQQKPGSSPKLWIYTTSILASGVPARFSGSGSGTSYSLTISSMETEDAASYFCHQWSSYPFTFGSGTKLDIK	full antagonist	no agonist effect	–	–	–	–
–	–	224G11: murine anti-c-Met monoclonal antibody, IgG1 kappa; heavy chain SEQ ID No. 18, light chain SEQ ID No. 21 (antibody, V domains shown, mus musculus) VH: EVQLQQSGPELVKPGASVKISCKTSGYIFTAYTMHWVRQSLGESLDWIGGIKPNNGLANYNQKFKGKATLTVDKSSSTAYMDLRSLTSEDSAVYYCARSEITTEFDYWGQGTALTVSS VL: DIVLTQSPASLAVSLGQRATISCRASESVDSYANSFMHWYQQKPGQPPKLLIYRASNLESGIPARFSGSGSRTDFTLTINPVEADDVATYYCQQSKEDPLTFGSGTKLEMK	–	–	significant anti-tumor activity	as efficient as Navelbine®	significant anti-tumor activity	significant difference in median tumors growth

From patent US8871909B2, “Antibodies inhibiting c-Met dimerization and uses thereof” (Pierre Fabre Medicament, priority 2007, dated 2014)
